Results taken from the nanobody polyreactivity screen of Harvey et al. (2022).

assay: yeast display, Sf9 membrane polyspecificity reagent, FACS + sequencing; frameworks hold sequencing errors
In short: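 Synthetic nanobody libraries on Saccharomyces cerevisiae BJ5465 were galactose-induced for 36–48 hours, stained 1 hour at 4 °C with 10% biotinylated, detergent-solubilized Sf9 membrane reagent and enriched on streptavidin microbeads. FACS then separated cells into low and high (top ~1%) gates by anti-HA (expression) and streptavidin (reagent binding) fluorescence. Genes were colony-PCR amplified, MiSeq 2 × 250 sequenced and CDR-length filtered. A clone's polyreactivity label is that of its gate of origin.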

Sequence | polyreactivity (PSR sort gate)
QVQLVESGGGLVQAGGSLRLSCAASGYTLDGYAMGWYRQAPGKERDFVAAITFRGGGTYYADSVKGRFTISRDNSKNTVYLQMISLKPEDSAVYYCNADTYDPFPWGSDYWGQGTQVNVSS | high polyreactivity
QVQLVESGGGLVQAGGSLRLSCAASGYTLGVNAMGWYRQAPGKERELVAAINYIDTRTYYADSVKGRFTISRDNAKNTVYLQMNSLKPEDTAVYYCAALPYVPWVKRYYYWGQGTQVTVSS | low polyreactivity
QVQLVESGGGLVQAGGSLRLSCAASGYTLRPNGMGWYRQAPGKERELVAAISSGGSTYYADSVKGRFTISRDNAKNTVYLQMNSLKPEDTAVYYCAAEYWYDYWGQGTQVTVSS | low polyreactivity
QVQLVESGGGLVQAGGSLRLSCAASGYTSYVYAMGWYRQAPGKERELVAAISLRTASTYYADSVKGRFTISRDNAKNTVYLQMNSLKPEDTAVYYCARGRETYRYCYRLNYWGQGTQVTVSS | high polyreactivity
QVQLVESGGGLVQAGGSLRLSCAASGYTVGTYDMGWYRQAPGKERELVAAISIGGSTNYADSVKGRFTMSRDNAKNTVYLQMNSLKPDATAVSYCASEVNVGTLLLSVIVEDGDYWGQGTQVTVSS | low polyreactivity
QVQLVESGGGLVQAGGSLRLSCAASGYTYGNYAMGWYRQAPGKERELVAAITSRGGRTYYADSVKGRFTISRDNAKNTVYLQMNSLKPEDTAVYYCAARGRYKDGYRMDYWGQGTQVTVSS | high polyreactivity
QVQLVESGGGLVQAGGSLRLSCAASGYTYRYYAMGWYRQAPGKERELVAAISASGGITYYADSVKGRFTISRDNAKNTVDLQMNCLNPEDTAVYYCATTGWGSWFDPYDYWGQGTQVTVSS | high polyreactivity
QVQLVESGGGLVQAGGSLRLSCAASRFIFGKYAMGWYRQAPGKEREFVAAITRSGGSTYYADSVKGRFTISRDNAKNTVYLQMNSLKPEDTAVYYCAAYSLKYYNGYDYWGQGTQVTVSS | high polyreactivity
QVQLVESGGGLVQAGGSLRLSCAASRFIFYYYALGWYRQAPGKERELVAAITWSGGSTYYADSVKGRFTISRDNAKNTVYLQMNSLKPEETAEYYCAVYSTEYKLLWGGISYDYWGQGTQVTVSS | low polyreactivity
QVQLVESGGGLVQAGGSLRLSCAASRFNFDRNVSGWYRQEPGKERELVAAITGSGGRTYYADSVKGRFKISRDNAKNTVYLQMNSLKPEDTAVYYCARAFGQRRYVYWGQGTQVTVSS | high polyreactivity
QVQLVESGGGLVQAGGSLRLSCAASRITFRFYAMGWSRQAPGKERELVAVISRGGGTTYYADSVKGRFTISRDNAKNTVYLQMNSLKPEDTAVYYCNAVIAWYRSDEYDYWGQGTQVTVSS | high polyreactivity
QVQLVESGGGLVQAGGSLRLSCAASRMGWYRQAPGKERELVARISGGVSTNYADSVRGRFTISRDNAKNTVYLQMNSVKPEDTAVYYCAADPLDTYDYWGQGTQATVSS | low polyreactivity
QVQLVESGGGLVQAGGSLRLSCAASRRIFYGYAMGWYRQAPGKERELVAAISLRTGSTFYADSVKGRFTISRDNAMNTVYLQMNSLKPEDTAVYYCAKEESYRPYIYVMDYWGQGTQVTVSS | low polyreactivity
QVQLVESGGGLVQAGGSLRLSCAASRRISHYYAMGWYRQAPGKERALVASIRISGGSTYYADSVKGRFTISRDYAKNTVFLQMNSLKPEDTAVYYCATLGYNWRRLYYWGQGTEVTVSS | high polyreactivity
QVQLVESGGGLVQAGGSLRLSCAASRRIYGGNAMGLNRKAPGKERELVAAINSSGGRTYYADSVKGRFKISRDNAKNTVYLQMKSLKTEDTAVYYCAGRVGCNWYDYWGQGTQVPVSS | high polyreactivity
QVQLVESGGGLVQAGGSLRLSCAASRRTLGKYVMGRYRQQPGKERELVPAIRSGTNTYYADSVKGRFTISRDNAKNTVYLQMNSLIPEDTAVYYCGAARYTKFDYWGQGTQLTVSS | high polyreactivity
QVQLVESGGGLVQAGGSLRLSCAASRSIFEANDMGWYRQAQGKERELVAAIDANTGSTYYADSVKGRFTISRDNAKNTVYLQMNRLKPEDTAVYYCNAQVYLHTAYDYWGQGTQVTVSS | low polyreactivity
QVQLVESGGGLVQAGGSLRLSCAASRSTFAYYSMGWYRKEPGKETELVAAITRGGSTNYADSVKGRFRISRDNAKNTVLLQMNSLKPEDTAVYYCAAGDVQDYEYDYLGQGTQVTVSS | low polyreactivity
QVQLVESGGGLVQAGGSLRLSCAASRSTFPWYAMGWYRQAPGKERELVARINSGGSTTYADSVKGRFTISRDNAKNTVYLQMNSLKPEDTAVYYCAADRWYSTYLASYYGYDYWGQGTQVTVSS | low polyreactivity
QVQLVESGGGLVQAGGSLRLSCAASRSTLLSNAMGWYTQAPGKERELVAAINYSGGRTYYADSVKGRFTISRDNAKNTVYLQINSLKPVDTAVYYCNALSSGHGSSSRYDYWGQGTQVTVSS | low polyreactivity
QVQLVESGGGLVQAGGSLRLSCAASRTIIASYAMGSYRQAPGKERELVAAISRSGGRTYYADSVKGRFTISRDNAQNTVYLQMNSLKPEDSAVYYCNVLQPQSSDWLITYDYWGQGTQVTVSS | high polyreactivity
QVQLVESGGGLVQAGGSLRLSCAASRYYAMGWYRQAPGKERELVPAITWSGGTTYYADSVKGRFTISRYNGKNTVYLQMNSLTPEDTAVYYCNADFVRFTRHKKYYYWGQGTQVTVSS | low polyreactivity

Sequence | polyreactivity (PSR sort gate)
QVQLVESGGGLVQAGGSLRLSCAASVFTFDENAMGWYRQAPGINYSGASTYYADSVKGRFTISRDNAKNTVYLQMNSLKPDDTAVYYCAAEVVAQMNYWGQGTQVTVSS | low polyreactivity
QVQLVESGGGLVQAGGSLRLSCAASVFTFSRYAMGWYRQAPGKERELVAAITSRGGSTYYADSVKGRFTISRDNAKNTVYLQMNSLKPEDTAVYYCAASGRNRKDGLYEYYYWGQGTQVTVSS | high polyreactivity
QVQLVESGGGLVQAGGSLRLSCAASVFTFWWYDMGWYIQAPGKERELVAAISRGGSTYYADSVKGRFTISRDNAKNTVNLQMNSLKPEDTAVYYCAADTTYGINRREYWGQGTQVTVSS | low polyreactivity
QVQLVESGGGLVQAGGSLRLSCAASVGIFIYNAMGWYRQAPGKEREFVAAINISGGNTYYADSVKGRFTISRDNAKNTVFLQMNSLKPEDTGVYYCAARYASCWWIRYYYWGQGTQVTVSS | high polyreactivity
QVQLVESGGGLVQAGGSLRLSCAASVIIFSYNAMGWYRQAPGKERELVAAISYSGGSTYYADSVKGRFTISRDNAKNTVYLQMNSLKPEDTAVYYCAAEKYLGELDYWGQGTQVTVSS | low polyreactivity
QVQLVESGGGLVQAGGSLRLSCAASVITFGANTMGWDIQAPGKERELVATLTSSGGSTYYADSVKGRFTISRDNAKNTVYLQMNSLKPEDTAVYYCAASDLRDRGNYVYLPSEYWGLGTQVTVSS | low polyreactivity
QVQLVESGGGLVQAGGSLRLSCAASVITFIDYARGWYRQAPGKERELVAAINSSGGGTYYADSVKGRFTISRDNAKNTVYLQMNSLKPEDTAVYYCAADFWYWGQIDSSDYWGQGTQVTVSS | low polyreactivity
QVQLVESGGGLVQAGGSLRLSCAASVLIFGPYTMGWYRQAPGKEREFDAAINRSGGSTYYADSVKGRFTISRDNAKNTVYLQMNSLKPEDTAVYYCNAEQYGKQWYSGYNYDYWGQGTQVTVSS | high polyreactivity
QVQLVESGGGLVQAGGSLRLSCAASVLIIGYNSMGWYRQAPGTERELVASIRYSGGTTYYADSVKGRFTISRDNEKNTVNLQMNSVKPEDTAVYFCATRVTYRRRFDYWGQGTQVTVSS | high polyreactivity
QVQLVESGGGLVQAGGSLRLSCAASVRIFVDNTMGLYRQAPGKERELVAVITSGGSTNYADSVKGRFTISRDNAKNTVYLQMNSLKPEDTAVYYCATEPGGDRFDDRPFQYGYWGQGTQVTVSS | low polyreactivity
QVQLVESGGGLVQAGGSLRLSCAASVRTFEGYAMGWDRQEPGKERELVAAISKSGGRTYYADSVKGRFTISRDNAKNTVYLQMNSLKPEHTAVYYCAARVSSGSNSDYWGQGTQVTVSS | high polyreactivity
QVQLVESGGGLVQAGGSLRLSCAASVRTFGFNVMGWYRQAPGKERELVAAISWSGGSTYYADSVKGRFTISRDNAKNTVYLQMNSLKPEVTAVYYCNKRYVHRYGYWGQGTQVTVSS | low polyreactivity
QVQLVESGGGLVQAGGSLRLSCAASVRTFKFYAMGWYRQAPGKERELVAAITSSGGSTYYADSVKGRFTISRVNAKNTVYLQMNSLKPEDTAVYYCAAVGYKGYGYDYWGQGTQVTVSS | high polyreactivity
QVQLVESGGGLVQAGGSLRLSCAASVRTMGPYTMGWYRPAPGKERELVAVISSRTGLTYYADSVKGRFTISRDNAKITFYLHMNSLKPEDTAVYYCNAGGRYHAPSGDYWGQGTQVTVSS | low polyreactivity
QVQLVESGGGLVQAGGSLRLSCAASVSIFDSYAMAWYRQAPGKERELVAAISKRGGSTYYADSVKGRFTISRDTAKNTVYLQMNCLKPEDTAVYFCAAVYSQARSKAVYSEYYYWGLGTQVTVSS | high polyreactivity
QVQLVESGGGLVQAGGSLRLSCAASVSIFRWNTMGWYRQAPGKERELVASITFTGGRTYYADSVKGRFTISRDNAKNTVYLQMNSLKPEDTAVYYCNGLVVTYPKWKYDYWGQGTQVTVSS | high polyreactivity
QVQLVESGGGLVQAGGSLRLSCAASVSIFSSYAMGWYRQAPGKERELVAAISRSGGRTYYADSVKGRFTISRDNAKNTVFLQMNSLKPEDTAVYYCNAYAQVSYGTYDYWGQGTQVTVSS | high polyreactivity
QVQLVESGGGLVQAGGSLRLSCAASVSIFWLYAMGWYRQAPGKERELVAAITYSGGRTYADSVKGRFTISRDNAKNTVYVQMISLKPEDTEVIYCATVFRYRKSWGYDYWGQGTQVTVSS | low polyreactivity
QVQLVESGGGLVQAGGSLRLSCAASVSIFYFYAMGWYIQAPGKERELVAAITDGGSTHYADSVKGRFTISRDNAKNTVYLQMNSLKPEDTAVYYCAAQWHYYLGSGYQYDYWGQGTQVTVSS | low polyreactivity
QVQLVESGGGLVQAGGSLRLSCAASVSIYPDYAMGWYRQAPGKERELVAAISRSGGSTYYADSVKGRFTISRDNAKNTVYLQMNSLKREDTAVYDCNARPGSRYYGYRLYYYWGQGTQVTVSS | high polyreactivity
QVQLVESGGGLVQAGGSLRLSCAASVSTFPFYSMGWYRQAPGKERELVAAITSGGSTYADSVKGRFTISRDNAKNTVYLQMNSLKPEDTAVYYCAASWPRWWRFGYWGQGTQVTVSS | low polyreactivity
